Reference: paper PMC10003648, “Polymer-Degrading Enzymes of Pseudomonas chloroaphis PA23 Display Broad Substrate Preferences” (International Journal of Molecular Sciences, 2023)

Test system: CCCCCCCC(=O)Oc1ccc([N+](=O)[O-])cc1
Assay: purified protein
Type: biochemical, Pseudomonas chlororaphis
Conditions: optimal assay conditions (optimum pH 6.0, 50 °C), 0.1-3.0 mmol/L substrate

## LIP4 (Pseudomonas chlororaphis)
  Km: 333 µM
